The subject of series [1] is LexA. In words: FRET LexA titration. Particulars: 75 mM NaCl, absolute S1/2 only in figure, LexA FRET: 10 nM nucleosome, 0-100 uM LexA, 0.5x TE, 10 min, nucleosomes reconstituted by KCl step dialysis (2 M to 10 mM), 10 mM Tris-HCl pH 7.8 …, scale: % decrease of S1/2 vs unmodified nucleosome.
Series [2] relates to Histone octamer, H2B T112C or end-label DNA FRET, unmodified H4 (Xenopus laevis). In words: FRET salt titration. Particulars: C1/2 is the NaCl concentration for 50% FRET loss, LexA FRET: 10 nM nucleosome, 0-100 uM LexA, 0.5x TE, 75 mM NaCl, 10 min, nucleosomes reconstituted by KCl step dialysis (2 M to 10 mM), 10 mM Tris-HCl pH 7.8 ….
For series [3], the system named is Histone octamer with H4K77succ (Xenopus laevis). In words: FRET salt titration. The note with it: LexA FRET: 10 nM nucleosome, 0-100 uM LexA, 0.5x TE, 75 mM NaCl, 10 min, nucleosomes reconstituted by KCl step dialysis (2 M to 10 mM), 10 mM Tris-HCl pH 7.8 ….

“601 DNA with LexA site, in H4K77succ nucleosome”: the binding signal in series [1] was 45.5.

Consider MMTV-B, for which the K half in series [2] was determined as 0.475 M NaCl. Moreover, the binding signal (% decrease of C1/2 vs unmodified) in series [3] (NaCl titration) was determined as 9.

For Widom 601, end-labelled, the K half in series [2] (not a protein Kd) was 0.621 M NaCl; in series [3] (C1/2 is the NaCl concentration for 50% FRET loss, 14.8% lower than unmodified), 0.529 M NaCl.

The record behind these values is PMC7515725.
